This test has as its target Monomeric soluble human PD-1 (human, UniProt Q15116 25-170). Nature of the test: SPR.

Sequence of Monomeric soluble human PD-1 (Q15116 25-170): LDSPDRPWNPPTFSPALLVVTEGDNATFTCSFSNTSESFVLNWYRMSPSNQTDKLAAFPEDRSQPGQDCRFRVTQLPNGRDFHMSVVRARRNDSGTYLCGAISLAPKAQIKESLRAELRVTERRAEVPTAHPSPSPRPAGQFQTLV

B1: Clone 10 anti-PD-1 antibody (antibody, V domains shown)
VH: DVQLQESGPGLVKPSQSLSLTCTVTGYSITSDYAWNWIRQFPGNKLEWMGYINYSGSTSYNPSLKSRISITRDTSKNQFFLQLNSVTTEDTATYYCARWIGSSAWYFDVWGAGTTVTV
VL: DVLMTQTPLSLPVSLGDQASISCRSGQNIVHSNGNTYLEWYLQKPGQSPKLLIYKVSNRFFGVPDRISGSGSGTDFTLKISRVEAEDLGVYFCFQGSHVPFTFGSGTKLEIK
Take B1: the dissociation rate constant (koff) (usually the first-order rate constant of dissociation) was roughly 0.4 s⁻¹.

B2: Clone 19 anti-PD-1 antibody (antibody, V domains shown)
VH: QVQLQQSGAELVKPGASVKMSCKAFGYTFTTYPIEWMKQNHGKSLEWIGNFHPYNDDTKYNEKFKGKAKLTVEKSSTTVYLELSRLTSDDSAVYYCARENYGSHGGFVYWGQGTLVTV
VL: ENVLTQSPAIMSASPGEKVTMTCRASSSVISSYLHWYQQKSGASPKLWIYSTSNLASGVPDRFSGSGSGTSYSLTISSVEAEDAATYYCQQYNGYPLTFGAGTKLEIK
Turning to B2, the koff was roughly 0.0013 s⁻¹.

B3: Clone 2 anti-PD-1 antibody (antibody, V domains shown)
VH: QVQLQQPGAELVKPGASVKLSCKASGYTFTTYYLYWVRQRPGQGLEWIGGINPSNGGTNFNEKFKSKATLTVDKSSSTAYMQLNSLTSEDSAVYYCTRRDYRYDRGFDYWGQGTSVTV
VL: DIVLTQSPASLAVSLGQRATISCRASKSVSTSGFNYIHWYQQKPGQPPKLLIYLASNLESGVPARFSGSGSGTDFTLNIHPVEDEDAATYYCQHSRELPLTFGAGTKLEIK
In turn, B3 came in with a koff of roughly 0.0027 s⁻¹.

The record behind these values is patent publication US20110171215A1 (published 2011).
